# Data: the DeepSol protein solubility set
# Experiment: soluble on expression in E. coli; label from the status in PepcDB or PDB records
row,Sequence,soluble on expression in E. coli
1,LLRGLLASIEHGINRVLRLDSTALPRLARLSGHVIAVDCRDPSLKIFILPSDEGLLLAADWAADADCTLRAPASSLLRLALSKDKTAVLHGPDVELEGDSGVLLELTGILQDLELDWEHELSNWVGPVASQLFSSRVRSSGRWTRESFTSLSQNVADYLSEESRTLVGNHEAEARFAELDRIKLDLDRLEARFARLAHFLNT,not soluble
2,LLTLSDIGLSVHRYSNRLDVFTQALEGGKALGDVSVDVYDDNGKVVAQGKTDSDGHARLPLPAKAAVVLAHKDEQTSMLRLNSSALDLAEFDISGPQAHPLQFFIFGPRDLYRPGETVLLNGLLRDSDGKNVKPQPITVEVRRPDDQVSRKFVWEADSSGFYQYQLQLAEEAPTGRWQLVFDLGDGKPQLYEFKVEDFLPERLALELKGSDAPVAPADNPEFDITGRYLYGAPASGNTLTGQVYVRPLREAVAKLPGYQFGSITE,not soluble
3,LLVVGPKFIRANQEYTLVISNFNSQLSKVDLLLKLEGETDNGLSVLNVTKMVDVRRNMNRMINFNMPEDLTAGNYKITIDGQRGFSFHKEAELVYLSKSISGLIQVDKPVFKPGDTVNFRVIVLDTELKPPARVKSVYVTIRDPQRNVIRKWSTAKLYAGVFESDLQIAPTPMLGVWNISVEVEGEELVSKTFEVKEYVLSTFDVQVMPSVIPLEEHQAVNLTIEANYHFGKPVQGVAKVELYLDDDKLKLKKELTVYGKGQVELRFDNFAMDADQQDVPVKVSFVEQYTNRTVVKQSQITVYRYAYRVELIKESPQFRPGLPFKCALQFTHHDGTPAKGISGKVEVSDVRFETTTTSDNDGLIKLELQPSEGTEQLSIHFNAVDGFFFYEDVNKVETVTDAYIKLELKSPIKRNKLMRFMVTCTERMTFFVYYVMSKGNIIDAGFMRPNKQPKYLLQLNATEKMIPRAKILIATVAGRTVVYDFADLAFQELRNNFDLSIDEQEIKPGRQIELSMSGRPGAYVGLAAYDKALLLFNKNHDLFWEDIGQVFDGFHAINENEFDIFHSLGLFARTLDDILFDSANEKTGRNALQSGKPIGKLVSYRTNFQESWLWKNVSIGRSGSRKLIEVVPDTTTSWYLTGFSIDPVYGLGIIKKPIQFTTVQPFYIVENLPYSIKRGEAVVLQFTLFNNLGAEYIADVTLYNVANQTEFVGRPNTDLSYTKSVSVPPKVGVPISFLIKARKLGEMAVRVKASIMLGHETDALEKVIRVMPESLVQPRMDTRFFCFDDHKNQTFPINLDINKKADSGSTKIEFRLNPNLLTTVIKNLDHLLGVPTGCGEQNMVKFVPNILVLDYLHAIGSKEQHLIDKATNLLRQGYQNQMRYRQTDGSFGLWETTNGSVFLTAFVGTSMQTAVKYISDIDAAMVEKALDWLASKQHFSGRFDKAGAEYHKEMQGGLRNGVALTSYVLMALLENDIAKAKHAEVIQKGMTYLSNQFGSINNAYDLSIATYAMMLNGHTMKEEALNKLIDMSFIDADKNERFWNTTNPIETTAYALLSFVMAEKYTDGIPVMNWLVNQRYVTGSFPSTQDTFVGLKALTKMAEKISPSRNDYTVQLKYKKSAKYFKINSEQIDVENFVDIPEDTKKLEINVGGIGFGLLEVVYQFNLNLVNFENRFQLDLEKQNTGSDYELRLKVCASYIPQLTDRRSNMALIEVTLPSGYVVDRNPISEQTKVNPIQKTEIRYGGTSVVLYYDNMGSERNCFTLTAYRRFKVALKRPAYVVVYDYYNTNLNAIKVYEVDKQNLCEICDEEDCPAECGGHHHHHH,soluble
4,LPIQARPRRNRKNRAVRQLVQENLVKPSSLIYPLFVHDEETSVPIPSMPGQSRLSMEDLLKEVGEARSYGIKAFMLFPKVDDELKSVMAEESYNPDGLLPRAIMALKEAFPDVLLLADVALDPYSSMGHDGVVDEQSGKIVNDLTVHQLCKQAITLARAGADMVCPSDMMDGRVSAIRESLDMEGCTDTSILAYSCKYASSFYGPFRDALDSHMVGGTDKKTYQMDPSNSREAEREAEADASEGADMLMVKPGLPYLDVLAKIREKSKLPMVAYHVSGEYAMLKAAAEKGYISEKDTVLEVLKSFRRAGADAVATYYAKEAAKWMVEDMKGTQKFTEPCY,soluble
5,LPVPAGSRFEARVLGETRAMCCPGCQAVAEAIVAGGLESYYRHRSENAANPEALPKALSEELQLYDRPDVQGGFVRHEGELAETSLMIEGISCAACGWLIEKHLRQLPGVAEARLNLSNHRLHVRWQDSQLPLSQLLGELRQIGYAGHPYQPDRATERLAMENRR,not soluble
6,LRARTYGEGGFRVERVLEERPAFTRVQFSYLSDGLRVHGFANLPKGRGPFPVVVVLHGYVEPSRYRLLAYTTPYADFLAERGYLVLHPNFRGHPPSEGAPAQGLRHVYAVDVLNLLAEVRRGAFPQADPARIALFGHSMGGGVAQIVSLVDPGLKGAVLYGSMSGDERRNLERIRYWSGGSRGQELFALSPEVLRQASAWTYLAELSVPYSVHHGTQDAQVPPEWSWELCRRLKALKKPVECFSYPGGHLFRGEVDRVFRERVLAFLGRVL,soluble
7,LSDVLVPTAGGLSSDLSAAVAKALEETFGVAVSLLHVVDPGEEESGRQFMYEWAAEHGLSDAELRIETGDIEATIERLGRDYSLVIVGATERGLLSRIVRGSLVFDVIETLDTPVLLAERPSSRSLRERLFGRE,not soluble
8,LSEKEFFMSRAIKLAKLGWGKTNPNPLVGAVVVKDGKIIAEGYHKQLGGPHAEVEAFNNAKEDVAGGTLYVNLEPCSHYGRTPPCAQKIIDVGIKKVVAAIKDPNPKVSGRGFEMLKNAGIEVEVGVLEEEAIRLNEIFITYIVKKKPFVILKTAMTLDGKIATASGDSKWVTGEKARNHVHVIRDRVAAVMVGINTVLKDNPYLTTRLPDKEGSDPVRIVVDSKGSIPLDSNVINSNSKAGVILATTSRIDKEKEKMLIDKGVKIIKADGSDGRVDLKLLMDELYKLEIDSVLLEGGGTLNSSAISAGIVDKVMCFISPKIVGGENAPTSVEGIGALRMCEAIGVKNISVVKFGEDILLEGYIE,soluble
9,LSNTRVQSRTAKVGYQAGVAINLKTSDYFSIRPEVLYNIMGGDTQYGDDEGNTKVLKNRYDYLSIPLNFVATFEAGPGKINVFVAPQFSLGLGGKYTSNTDSSAVGFFGVRRREDRSGTLQTSDVPDNYTGTNKYFNQINWGINYGVGYQVKGLLFTGQYHMGLSNNEPHYSNPDQEAHRGNVVTKNYGFTVGLTYFFGDTK,not soluble
10,LTYLNYYGKEKPELVYTKIAQSSQQDAFNISKRSQKEMDKQKTWAMVLNQDGQIVQSYRLPQQLKRHYTNADMVKFSRWYLDDYPVFSYVRGQQILVFGYPKKYSLAKFNFYLNTQFIK,not soluble
11,LVRGGWLWRQSSILRRWKRNWFALWLDGTLGYYHDETAQDEEDRVVIHFNVRDIKVGQECQDVQPPEGRSRDGLLTVNLREGSRLHLCAETRDDAIAWKTALMEANSTPAPAGATVP,soluble
12,MAAATATAAATSKKMTYEFTIDDDELSEDGKPSTDQATMCNIYKLNLPASASILSKQIAKSQAKRAKKEERHRRRVDLSTVREQDETRVSNSEENSQNASPRPMTASALVPPDEIPDSAPASHCGGGGGRSRIDSAPLGVKLQRQASLPEDQRKAEPMDEEEAELLAMLLGGIERNERKQMTLNGAGNQKIQEAPIVQAPQIPPSPGLPRLPPGAKVSEWLLERSSSPDNVSVISSVLLEDSGLLLNYQNSVGDEEEDVFFDAEEEKPDDVVNCVEHELQGKSLRVFVRDLSHVLGLSLNRNMAAMTQSLVRVEEETTTTDGPAANDSFRTGRSTSVSPRPTNEQFLRNTNGSATFNVKHSSTLARLQKLTPPNNGNTNPILSTTTTPLSSRTTRSVLRVHNVNSVPRPSVQNSTMSKSSVTANQTNRRAFSGVRMPDMNPTLQKSSPPVVTINPLTPSRPASVASSIGARSGVNGTMTASNLEGLQDLIQQQEDALRRAALNDQSTERKMSWQSDQDANNRQSTSVHSSLGSICSSKSIDGAHALSKMGTPTASRIPTPRSRLPTPRGSNLPKRVYVFFGNFGPNSR,not soluble
13,MAADRNTGHTEEDKLDVLKSTQTVIHKALEKLGYPEEVYELLKEPMRLLTVKIPVRMDDGSVKIFTGYRAHNDSVGPTKGGIRFHPNVTEKEVKALSIWMSLKCGIIDLPYGGGKGGIVCDPRDMSFRELERLSRGYVRAISQIVGPTKDVPAPDVFTNSQIMAWMMDEYSRIDEFNSPGFITGKPLVLGGSHGRESATAKGVTICIKEAAKKRGIDIKGARVVVQGFGNAGSYLAKFMHDAGAKVVGISDAYGGLYDPEGLDIDYLLDRRDSFGTVTKLFNDTITNQELLELDCDILVPAAIENQITEENAHNIRAKIVVEAANGPTTLEGTKILSDRDILLVPDVLASAGGVTVSYFEWVQNNQGFYWSEEEVEEKLEKMMVKSFNNIYEMANNRRIDMRLAAYMVGVRKMAEASRFRGWI,soluble
14,MAAEEGAVIACHTKQEFDTHMANGKDTGKLVIIDFTASWCGPCRVIAPVFAEYAKKFPGAIFLKVDVDELKDVAEAYNVEAMPTFLFIKDGEKVDSVVGGRKDDIHTKIVALMGSAST,soluble
15,MAAGVAAWLPFARAAAIGWMPVASGPMPAP,soluble
16,MAAIINQRVEQGESSMGGAKPALLHRITGHVARINDVILLSKDEGVWTASDDRSVRLYLKRDNDQFWPSIHHFMPVAPTSLYYSEETYKLLVGLINGNVYEFSVADDFNSMTESRKWTCHAGPISGLGFALSSELIFSCSRDKSIVWHCSENSNKMGSYLLENSCTAMVIDLPFVFVGDHGGHVTVLRIVDNQPNLVSKLSAHTNAITSLTWDGNKKVLYSGSSDHLIIMWDIGGGRGEAYELNGHNGKVTTLCAAPAAKRLFSADEHGKLMCWDMNCKRVETPEWKTSDCCQKCNQPFFWNLQAMWQRKVVGLRQHHCRTCGSAVCGSCCDNWTTYPPMGYETKIRICNDCNARMKDNPQNFNLTPLAIPHEIHTGITAMHLQETLGLLVTSGQNRVIMIWDVRSVCSAPSGSQ,not soluble
17,MAAKPVLYYFNGRGKMESIRWLLAAAGVEFEEVFLETREQYEKLLQSGILMFQQVPMVEIDGMKLVQTRAILNYIAGKYNLYGKDLKERALIDMYVGGTDDLMGFLLSFPFLSAEDKVKQCAFVVEKATSRYFPAYEKVLKDHGQDFLVGNRLSWADIHLLEAILMVEEKKSDALSGFPLLQAFKKRISSIPTIKKFLAPGSKRKPISDDKYVETVRRVLRMYYDVKPH,soluble
18,MAALAGDEAWRCRGCGTYVPLSQRLYRTANEAWHGSCFRCSECQESLTNWYYEKDGKLYCHKDYWAKFGEFCHGCSLLMTGPAMVAGEFKYHPECFACMSCKVIIEDGDAYALVQHATLYCGKCHNEVVLAPMFERLSTESVQDQLPYSVTLISMPATTECRRGFSVTVESASSNYATTVQVKEVNRMHISPNNRNAIHPGDRILEINGTPVRTLRVEEVEDAIKQTSQTLQLLIEHDPVPQRLDQLRLDARLPPHMQSTGHTLMLSTLDTKENQEGTLRRRSLRRSNSISKSPGPSSPKEPLLLSRDISRSESLRCSSSYSQQIFRPCDLIHGEVLGKGFFGQAIKVTHKATGKVMVMKELIRCDEETQKTFLTEVKVMRSLDHPNVLKFIGVLYKDKKLNLLTEYIEGGTLKDFLRSVDPFPWQQKVRFAKGISSGMAYLHSMCIIHRDLNSHNCLIKLDKTVVVADFGLSRLIVEERKRPPVEKATTKKRTLRKSDRKKRYTVVGNPYWMAPEMLNGKSYDETVDVFSFGIVLCEIIGQVYADPDCLPRTLDFGLNVKLFWEKFVPTDCPPAFFPLAAICCKLEPESRPAFSKLEDSFEALSLFLGELAIPLPAELEDLDHTVSMEYGLTRDSPP,soluble
19,MAALASSLIRQKREVREPGGSRPVSAQRRVCPRGTKSLCQKQLLILLSKVRLCGGRPARPDRGPEPQLKGIVTKLFCRQGFYLQANPDGSIQGTPEDTSSFTHFNLIPVGLRVVTIQSAKLGHYMAMNAEGLLYSSPHFTAECRFKECVFENYYVLYASALYRQRRSGRAWYLGLDKEGQVMKGNRVKKTKAAAHFLPKLLEVAMYQEPSLHSVPEASPSSPPAPLEHHHHHH,not soluble
